From patent US20060051755A1

Target: UbAMC (Homo sapiens (Human)) (UniProt P0CG48)

Km, fluorogenic ubiquitin cleavage assay: 0.5 µM
Substance: GST-Bap-1 (enzyme)
